{"source": "paper PMC4518304", "origin": "cited, not measured here", "target": "Asp26 (UniProt position 27, GAILVDFWAEW)", "assay": "NMR", "settings": "reduced thioredoxin (per title of ref. 51)"}
{"substance": "Thioredoxin (thioredoxin 1) (Escherichia coli)", "values": [{"measurement": "pKa", "result": "7.3–7.5"}]}
